Measurements: patent US20220332795A1

Key:
[1] = molecular target: human serum albumin (human) (UniProt P02768); test: primary solution ELISA screen
[2] = molecular target: human serum albumin (human) (UniProt P02768); test: solution ELISA screen (luminescence)

Sequence of human serum albumin (human) (P02768 25-609 limits assumed): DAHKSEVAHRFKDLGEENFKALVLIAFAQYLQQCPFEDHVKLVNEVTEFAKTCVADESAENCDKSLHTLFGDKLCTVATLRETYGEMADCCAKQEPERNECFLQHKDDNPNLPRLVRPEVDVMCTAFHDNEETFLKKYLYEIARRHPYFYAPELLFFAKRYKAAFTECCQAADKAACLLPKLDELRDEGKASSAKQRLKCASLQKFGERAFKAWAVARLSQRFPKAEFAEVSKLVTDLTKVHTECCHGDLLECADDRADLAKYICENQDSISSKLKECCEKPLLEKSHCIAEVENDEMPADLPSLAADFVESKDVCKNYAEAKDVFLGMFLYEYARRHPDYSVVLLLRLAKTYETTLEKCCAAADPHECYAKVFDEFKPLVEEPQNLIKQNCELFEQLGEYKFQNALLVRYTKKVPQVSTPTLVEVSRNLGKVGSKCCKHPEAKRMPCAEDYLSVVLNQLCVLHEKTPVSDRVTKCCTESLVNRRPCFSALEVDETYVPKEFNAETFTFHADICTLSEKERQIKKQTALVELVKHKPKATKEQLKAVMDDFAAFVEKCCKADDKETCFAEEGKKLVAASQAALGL

B1: SEQ ID NO 3 (designed binder, not shown: small tags and cut ends)
chain: MLPAPKNLVVSRVTEDSARLSWTAPDAAFDSFNIEYAETRWYGEAIVLTVPGSERSYDLTGLKPGTEYVVPIDGVKGGIASKPLSAIFTT
- RLU [1]: 9950 RLU

B2: SEQ ID NO 33 (designed binder, not shown: small tags and cut ends)
chain: MLPAPKNLVVSRVTEDSARLSWTAPDAAFDSFGIAYVESYWYGEAIVLTVPGSERSYDLTGLKPGTEYNVPIYGVKGGDGSGPLSAIFTT
- RLU [1]: 2050 RLU

B3: SEQ ID NO 2 (designed binder, not shown: small tags and cut ends)
chain: MLPAPKNLVVSEVTEDSARLSWQGVARAFDSFMINYSELFWMGEAIVLTVPGSERSYDLTGLKPGTEYVVRIKGVKGGKGSWPLHAHFTT
- RLU [1]: 28400 RLU

B4: SEQ ID NO 20 (designed binder, not shown: small tags and cut ends)
chain: MLPAPKNLVVARVTEDSARLSWTAPDAAIDSFPIDYSEYWWGGEAIVLTVPGSERSYDLTGLKPGTEYPVLITGVKGGYRSGPLSAIFTT
- RLU [1]: 18400 RLU

B5: SEQ ID NO 34 (designed binder, not shown: small tags and cut ends)
chain: MLPAPKNLVVSRVTEDSARLSWTAPDAAFDSFYITYVELNLAGEAIVLTVPGSERSYDLTGLKPGTEYPVPILGVKGGSLSQPLSAIFTT
- RLU [1]: 8100 RLU

B6: SEQ ID NO 24 (designed binder, not shown: small tags and cut ends)
chain: MLPAPKNLVVSRVTEDSARLSWTAPDAAFDSFMIRYQEGTRWGEAIVLTVPGSERSYDLTGLKPGTEYIVMIAGVKGGQISLPLSAIFTT
- RLU [1]: 6550 RLU

B7: SEQ ID NO 241 (designed binder, not shown: small tags and cut ends)
chain: MLPAPKNLVVSRVTEDSARLSWTAPDAAFDSFFIGYLEPQPPGEAIHLGVPGSERSYDLTGLKPGTEYNVTIQGVKGGFPSIPLFASFTT
- RLU [2]: 26600 RLU

B8: SEQ ID NO 243 (designed binder, not shown: small tags and cut ends)
chain: MLPAPKNLVVSRVTEDSARLSWTAPDAAFDSFFIGYLEPQPPGEAIHLAVPGSERSYDLTGLKPGTEYNVTIQGVKGGFPSVPLAAVFTT
- RLU [2]: 30900 RLU

B9: SEQ ID NO 251 (designed binder, not shown: small tags and cut ends)
chain: MLPAPKNLVVSRVTEDSARLSWTAPDAAFDSFFIGYLEPQPPGEAIGLWVPGSERSYDLTGLKPGTEYNVTIQGVKGGFPSDPLQAVFTT
- RLU [2]: 26100 RLU

B10: SEQ ID NO 255 (designed binder, not shown: small tags and cut ends)
chain: MLPAPKNLVVSRVTEDSARLSWTAPDAAFDSFFIGYLEPQPPGEAILLFVPGSERSYDLTGLKPGTEYNVTIQGVKGGFPSTPLSASFTT
- RLU [2]: 102000 RLU

B11: SEQ ID NO 31 (designed binder, not shown: small tags and cut ends)
chain: MLPAPKNLVVSRVTEDSARLSWTAPDAAFDSFTIEYSEHPIDGEAIPLFVPGSERSYDLTGLKPGTEYYVRIHGVKGGWFSHPLWAFFTT
- RLU [1]: 4650 RLU

B12: SEQ ID NO 102 (designed binder, not shown: small tags and cut ends)
chain: MLPAPKNLVVSRVTEDSARLSWQGVARAFDSFLITYREQIFAGEVIVLTVPGSERSYDLTGLKPGTEYPVWIQGVKGGSPSAPLSAEFTT
- RLU [1]: 39700 RLU

B13: SEQ ID NO 32 (designed binder, not shown: small tags and cut ends)
chain: MLPAPKNLVVSRVTEDSARLSWQGVARAFDSFLITYREQIFAGEVIVLTVPGSERSYDLTGLKPGTEYGVTIAGVKGGWRSKPLNAESTT
- RLU [1]: 4550 RLU

B14: SEQ ID NO 15 (designed binder, not shown: small tags and cut ends)
chain: MLPAPKNLVVSRVTEDSARLSWQGVARAFDSFLITYREQIFAGEVIVLTVPGSERSYDLTGLKPGTECPVWIQGVKGGSPSAPLSAEFTT
- RLU [1]: 14400 RLU

B15: SEQ ID NO 23 (designed binder, not shown: small tags and cut ends)
chain: MLPAPKNLVVSRVTEDSARLSWTAPDAAFDSFAIWYHEWYGDGEAIVLTVPGSERSYDLTGPKPGTEYRVRISGVKGGFESGPLSAIFTT
- RLU [1]: 12600 RLU

B16: SEQ ID NO 17 (designed binder, not shown: small tags and cut ends)
chain: MLPAPKNLVVSRVTEDSARLSWTAPDAAFDSFPILYTECVYRGEAIVLTVPGSERSYDLTGLKPGTEYHVPITGVKGGGGSWPLSAIFTT
- RLU [1]: 3650 RLU

B17: SEQ ID NO 19 (designed binder, not shown: small tags and cut ends)
chain: MLPAPKNLVVSRVTEDSARLSWTAPDAAFDSFAITYTEAALCGEAIVLTVPGSERSYDLTGLKPGTEYPVPINGVKGGGTSGPLSAIFTT
- RLU [1]: 17900 RLU

B18: SEQ ID NO 18 (designed binder, not shown: small tags and cut ends)
chain: MLPAPKNLVVSRVTEDSARLSWTAPDAAFDSFNIMYHEIIYVGEAIVLTVPGSERSYDLTGLKPGTEYPVPIEGVKGGGTSGPLSAIFTT
- RLU [1]: 10400 RLU

B19: SEQ ID NO 30 (designed binder, not shown: small tags and cut ends)
chain: MLPAPKNLVVSRVTEDSARLSWTAPDAAFDSFIIHYVEQQLIGEAIVLTVPGSERSYDLTGLKPGTEYPVPITGVKGGACSWPLSAIFTT
- RLU [1]: 4450 RLU

B20: SEQ ID NO 100 (designed binder, not shown: small tags and cut ends)
chain: MLPAPKNLVVSRVTEDSARLSWTAPDAAFDSFYIWYEEVMYLGEAIVLTVPGSERSYDLTGLKPGTEYNVPIPGVKGGHSSPPLSAIFTT
- RLU [1]: 5150 RLU

B21: SEQ ID NO 25 (designed binder, not shown: small tags and cut ends)
chain: MLPAPKNLVVSRVTEDSARLSWTAPDAAFDSFPIWYLEKSYQGEAIVLTVPGSERSYDLTGLKPGTEYVVPIIGVKGGRDSCPLSAIFTT
- RLU [1]: 3850 RLU

B22: SEQ ID NO 35 (designed binder, not shown: small tags and cut ends)
chain: MLPAPKNLVVSRVTEDSARLSWTAPDAAFDSFPISYIESIADGEAIVLTVPGSERSYDLTGLKPGTEYWVAIVGVKGGPFSWSLSAIVTT
- RLU [1]: 18800 RLU

B23: SEQ ID NO 27 (designed binder, not shown: small tags and cut ends)
chain: MLPAPKNLVVSRVTEDSARLSWTAPDAAFDSFRISYAETVRQGEAIVLTVPGSERSYDLTVETGYRNWVMILGVKGGPGSLPLSAIFTT
- RLU [1]: 2350 RLU

B24: SEQ ID NO 29 (designed binder, not shown: small tags and cut ends)
chain: MLPAPKNLVVSRVTEDSARLSWTAPDAAFDSFWIEYWEAVGFGEAIVLTVPGSERSYDLTGLKPGTEYFVGIYGVKGGYLSAPLSAIFTT
- RLU [1]: 3750 RLU

B25: SEQ ID NO 242 (designed binder, not shown: small tags and cut ends)
chain: MLPAPKNLVVSRVTEDSARLSWTAPDAAFDSFYIAYAEPRPDGEAIQLLVPGSERSYDLTGLKPGTEYSVLIHGVKGGLLSSPLYAAFTT
- RLU [2]: 20400 RLU

B26: SEQ ID NO 246 (designed binder, not shown: small tags and cut ends)
chain: MLPAPKNLVVSRVTEDSARLSWTAPDAAFDSFYIAYAEPRPDGEAIQLHVPGSERSYDLTGLKPGTEYSVLIHGVKGGLLSSPLYAFFTT
- RLU [2]: 25800 RLU

B27: SEQ ID NO 248 (designed binder, not shown: small tags and cut ends)
chain: MLPAPKNLVVSRVTEDSARLSWTAPDAAFDSFYIAYAEPRPDGEAIWLGVPGSERSYDLTGLKPGTEYSVLIHGVKGGLLSSPLHATFTT
- RLU [2]: 34000 RLU

B28: SEQ ID NO 245 (designed binder, not shown: small tags and cut ends)
chain: MLPAPKNLVVSRVTEDSARLSWTAPDAAFDSFYIAYAEPRPDGEAIALWVPGSERSYDLTGLKPGTEYSVLIHGVKGGLLSSPLVASFTT
- RLU [2]: 18400 RLU

B29: SEQ ID NO 259 (designed binder, not shown: small tags and cut ends)
chain: MLPAPKNLVVSRVTEDSARLSWTAPDAAFDSFYIAYAEPRPDGEAIQLGVPGSERSYDLTGLKPGTEYSVLIHGVKGGLLSSPLLAVFTT
- RLU [2]: 25400 RLU

B30: SEQ ID NO 256 (designed binder, not shown: small tags and cut ends)
chain: MLPAPKNLVVSRVTEDSARLSWTAPDAAFDSFYIAYAEPRPDGEAIQLTVPGSERSYDLTGLKPGTEYSVLIHGVKGGLLSSPLHAYFTT
- RLU [2]: 76100 RLU

B31: SEQ ID NO 250 (designed binder, not shown: small tags and cut ends)
chain: MLPAPKNLVVSRVTEDSARLSWTAPDAAFDSFYIAYAEPRPDGEAILLRVPGSERSYDLTGLKPGTEYSVLIHGVKGGLLSSPLYAKFTT
- RLU [2]: 48400 RLU

B32: SEQ ID NO 253 (designed binder, not shown: small tags and cut ends)
chain: MLPAPKNLVVSRVTEDSARLSWTAPDAAFDSFYIAYAEPRPDGEAIILHVPGSERSYDLTGLKPGTEYSVLIHGVKGGLLSSPLDAYFTT
- RLU [2]: 37700 RLU

B33: SEQ ID NO 257 (designed binder, not shown: small tags and cut ends)
chain: MLPAPKNLVVSRVTEDSARLSWTAPDAAFDSFYIAYAEPRPDGEAIQLGVPGSERSYDLTGLKPGTEYSVLIHGVKGGLLSSPLRAYFTT
- RLU [2]: 29800 RLU

B34: SEQ ID NO 258 (designed binder, not shown: small tags and cut ends)
chain: MLPAPKNLVVSRVTEDSARLSWTAPDAAFDSFYIAYAEPRPDGEAILLEVPGSERSYDLTGLKPGTEYSVLIHGVKGGLLSSPLVAFFTT
- RLU [2]: 26500 RLU

B35: SEQ ID NO 247 (designed binder, not shown: small tags and cut ends)
chain: MLPAPKNLVVSRVTEDSARLSWTAPDAAFDSFYIAYAEPRPDGEAILLHVPGSERSYDLTGLKPGTEYSVLIHGVKGGLLSSPLRASFTT
- RLU [2]: 19000 RLU

B36: SEQ ID NO 249 (designed binder, not shown: small tags and cut ends)
chain: MLPAPKNLVVSRVTEDSARLSWTAPDAAFDSFYIAYAEPRPDGEAIVLEVPGSERSYDLTGLKPGTEYSVLIHGVKGGLLSSPLHANFTT
- RLU [2]: 24100 RLU

B37: SEQ ID NO 254 (designed binder, not shown: small tags and cut ends)
chain: MLPAPKNLVVSRVTEDSARLSWTAPDAAFDSFYIAYAEPRPDGEAILLAVPGSERSYDLTGLKPGTEYSVLIHGVKGGLLSSPLSAKFTT
- RLU [2]: 21500 RLU

B38: SEQ ID NO 252 (designed binder, not shown: small tags and cut ends)
chain: MLPAPKNLVVSRVTEDSARLSWTAPDAAFDSFYIAYAEPRPDGEAIVLHVPGSERSYDLTGLKPGTEYSVLIHGVKGGLLSSPLDAFFTT
- RLU [2]: 72800 RLU

B39: SEQ ID NO 244 (designed binder, not shown: small tags and cut ends)
chain: MLPAPKNLVVSRVTEDSARLSWTAPDAAFDSFYIAYAEPRPDGEAISLQVPGSERSYDLTGLKPGTEYSVLIHGVKGGLLSSPLGAHFTT
- RLU [2]: 18000 RLU

B40: SEQ ID NO 22 (designed binder, not shown: small tags and cut ends)
chain: MLPAPKNLVVSRVTEDSARLSWTAPDAAFDSFWYLELQFAGEAIVLTVPGSERSYDLTGLKPGTEYNVPITGVKGGIISFPLSAIFTT
- RLU [1]: 30000 RLU

B41: SEQ ID NO 21 (designed binder, not shown: small tags and cut ends)
chain: MLPAPKNLVVSRVTEDSARLSWTAPDAAFDSFSIRYNEFIVAGEAIVLTVPGSERSYDLTGLKPGTEYDVPIAGVKGGGASWPLSAIVTT
- RLU [1]: 6850 RLU
